Experimental data: PMC3781837

What follows are sequences tested against WhiA (Streptomyces venezuelae) (UniProt F2RGQ4) (assay: DNase I footprinting). Conditions: DNase I footprinting per Sure Track kit (Amersham); buffer, salt, pH and temperature not given in the material.
UniProt F2RGQ4, sequence (F2RGQ4 whole entry): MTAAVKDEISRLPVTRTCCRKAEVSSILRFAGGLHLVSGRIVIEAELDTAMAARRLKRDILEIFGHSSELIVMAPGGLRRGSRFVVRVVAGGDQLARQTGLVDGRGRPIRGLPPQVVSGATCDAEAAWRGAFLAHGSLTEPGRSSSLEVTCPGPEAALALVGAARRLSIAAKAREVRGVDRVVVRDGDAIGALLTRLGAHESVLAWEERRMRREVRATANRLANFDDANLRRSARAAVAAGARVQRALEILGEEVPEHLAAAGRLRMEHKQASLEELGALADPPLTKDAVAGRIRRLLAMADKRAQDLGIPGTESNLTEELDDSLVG
For “AGCATCCGGTGCACCCTCCCAGTGTCGCACCCGAAGGTGTCGAATCCCGGGAGTGGGCCCGCCGCGACACGCGGAGGGCCCGGAATCGCCTTTAACCCAAGATCTAGTGGTTGGATGGCATCGG (double strand) [nrdR promoter probe]”, the binding was “binds”.
In the case of “CCGGAATTCCCACTCAAAAGGCTGGACATTCTCCAGATCAAACGGGCATACGCTCGATGACACGCCGCTTCGGCCCCTAGGATTCCCTCTAACACCTCACCGGTCTCATTCGACAGGAAACCCATGAGCGACACATCCTCCCCCTTCGGCTTCGAGCTCGTGCGGCGCGGTTAGGATCCGCG (double strand) [filP promoter probe]”, the binding is reported as “binds”.
With “GAACTGGTGGAGAAGTCGGCGAAGCGCTTGCGCGGGGCCGTCCTGATCGGTGCCGACCGCGCCCTGATCCGCGAAGCCCTGGCGCGACACGCCCCGGAGGTACCGGTGGTGGACCTCGACCGGACCGACACTGGGGCGATGTCCGAGGCGGTC (double strand) [ftsW promoter probe]” the binding was “binds”.
“GACATACCCACTCGGACTACTCCAGTCGACACGCCGAGGGTTTGCCCCTTTTGTAGGGATATCGACCCGTTCGACGACAGCTGGAGGCACCGTGCGGCCGGGAGGCTACGACTACGACAC (double strand) [cslA promoter probe]” was tested, and the binding was “binds”.
For “GACGTGCCGCGCATCCGGGCGGCCACGGACCTGGGCAACGTCCCGATGGCCGCGGCGTTCGCCCGGGCGGGTTACGACGCCTTCGAGCACGCGATCAACTACGTGTGGGACGCGCCGGGCGTGGCGGGTCCCTGACTGCCAGGATGGGGGCGTAGGTCCGTCGACGAGGGGATTTGGCGTGCTCTTCGAGGTGTGGGC (double strand) [treZ promoter probe]”, the binding was “binds”.
“GCGCCGCAGCCCGGAGAAACCGAGGGCTTCTCCCCGCAGCGTCATTTGGAGGTTTTGGGACGACACGCCCCTAAACTCGCCCTGGACGTGGTGCTGGCCGACGAGGCCGCCGTGCCCGACCGCGAGTCCCTCGCCGACGCCGCCAAGCGGCTCGGTGCCGC (double strand) [whiAp2 promoter probe]” was tested, and the binding was “binds”.
“GCTGCTCCACTCCACCAACGTAGGTCGGGAAGGGGCGGGAACCGGGTCCGGGACACGCCCTTTGGGTGACCTTGCCCCCGAGAACGACCGAAGGTCGGCGTCG (double strand) [sven4724-sven4725 intergenic probe]” was tested, and the binding was “binds”.
“GGCGGTACGGGAGCGGCCGACGCAGACTGGGAGGAGCGCCCTCTTTCCCGGAGTGCTGGAGGAACCACGGTATGACCGACCTCGCCATCGAGACCGAGGGCCTGGTCAAGGTCTTCGGCAGCAACCGCGCCGTCGACGGGATCGACCTCCGCGTCCCCGCCGGAATCGTCTACGGAGTCCTTGGCCCCAACGGCGC (double strand) [sven3535 promoter probe]” was tested, and the binding was “no binding”.
In the case of “GTCTCGCGCATGTGAGGGGCGGTGCCGCGCGGGGCACCGGGCCCGGCGGGCCCGGGCCGCACCGACGCGCCGGAATGATCGCTAAGAGGAAATTGTCCGATTAGCGCGTATCGTCGGCCCATGCCCACGCCATACGGATCCCGCGGCGGCATGGCGTTCAGCGCGGACGAGCTGCGTGTGCTCCGCCGTGCCCTCGCCATC (double strand) [sven3229 promoter probe]”, the binding is reported as “no binding”.
